Target: Hsp90 yeast homologue (Hsc82) (yeast) (UniProt P15108)
Chain of UniProt P15108 (P15108 whole entry): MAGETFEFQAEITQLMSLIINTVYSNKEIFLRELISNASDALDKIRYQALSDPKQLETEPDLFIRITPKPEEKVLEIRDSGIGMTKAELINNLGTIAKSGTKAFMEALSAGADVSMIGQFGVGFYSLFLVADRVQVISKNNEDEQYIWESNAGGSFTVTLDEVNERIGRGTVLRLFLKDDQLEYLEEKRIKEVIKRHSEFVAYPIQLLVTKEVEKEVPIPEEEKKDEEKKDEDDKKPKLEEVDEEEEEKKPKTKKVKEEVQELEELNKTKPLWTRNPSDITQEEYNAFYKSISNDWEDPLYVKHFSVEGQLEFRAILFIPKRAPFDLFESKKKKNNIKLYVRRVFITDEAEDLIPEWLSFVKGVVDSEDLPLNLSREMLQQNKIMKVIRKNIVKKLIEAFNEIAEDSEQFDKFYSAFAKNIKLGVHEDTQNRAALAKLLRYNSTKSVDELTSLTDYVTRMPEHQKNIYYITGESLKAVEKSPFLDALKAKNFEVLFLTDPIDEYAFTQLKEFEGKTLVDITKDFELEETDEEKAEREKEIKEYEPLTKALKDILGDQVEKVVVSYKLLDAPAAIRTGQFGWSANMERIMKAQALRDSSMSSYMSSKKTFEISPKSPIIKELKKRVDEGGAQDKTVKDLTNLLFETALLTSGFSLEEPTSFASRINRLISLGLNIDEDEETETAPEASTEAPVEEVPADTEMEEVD

## model client protein Δ131Δ (domain or fragment)
  other: 1.8 fold

Reference: PMC5921052
